Measured values reported in patent US20190233493A1 (Sanofi, published 2019).
*1 amine or outer side, *2 acyl side, *3 side chain or, on linkers, in order; H or OH if unused. Primed or numbered codes have the meaning given here. Side-chain parts run from the residue outwards. [ ]: non-standard residue; d: D form. The star is where a group is joined. PEG2DGA = 2-[2-[3-[2-[2-(3-aminopropoxy)ethoxy]ethoxy]propylamino-2-oxo-ethoxy]acetyl; TTDS″ = 4-[3-[2-[2-(3-aminopropoxy)ethoxy]ethoxy]propylamino]-4-oxo-butanoyl; TTDS(3) = O=C(CCC(=O)[*:2])NCCCOCCOCCOCCCN[*:1]; Trp(5-OH) = N[C@@H](Cc1c[nH]c2ccc(O)cc12)C(=O)O; Docosanoyl = CCCCCCCCCCCCCCCCCCCCCC(=O)*; Arachidoyl = CCCCCCCCCCCCCCCCCCCC(=O)*; Heptadecanoyl = CCCCCCCCCCCCCCCCC(=O)*; γGlu = O=C(O)[C@H](CCC(=O)[*:2])N[*:1]; Pentadecanoyl = CCCCCCCCCCCCCCC(=O)*; Arg(Me) = CNC(=N)NCCC[C@H](N)C(=O)O; Stearoyl = CCCCCCCCCCCCCCCCCC(=O)*; Palmitoyl = CCCCCCCCCCCCCCCC(=O)*; αMeF = C[C@](N)(Cc1ccccc1)C(=O)O; Myristoyl = CCCCCCCCCCCCCC(=O)*; αMeK = C[C@](N)(CCCCN)C(=O)O; Lauroyl = CCCCCCCCCCCC(=O)*; Nle = CCCC[C@H](N)C(=O)O; PEG2′ = PEG2 spacer unit; PEG2″ = not defined here; Aib = CC(C)(N)C(=O)O

T1: RXFP1 receptor (UniProt Q9HBX9 1-757, limits assumed)
T1 sequence (looked up): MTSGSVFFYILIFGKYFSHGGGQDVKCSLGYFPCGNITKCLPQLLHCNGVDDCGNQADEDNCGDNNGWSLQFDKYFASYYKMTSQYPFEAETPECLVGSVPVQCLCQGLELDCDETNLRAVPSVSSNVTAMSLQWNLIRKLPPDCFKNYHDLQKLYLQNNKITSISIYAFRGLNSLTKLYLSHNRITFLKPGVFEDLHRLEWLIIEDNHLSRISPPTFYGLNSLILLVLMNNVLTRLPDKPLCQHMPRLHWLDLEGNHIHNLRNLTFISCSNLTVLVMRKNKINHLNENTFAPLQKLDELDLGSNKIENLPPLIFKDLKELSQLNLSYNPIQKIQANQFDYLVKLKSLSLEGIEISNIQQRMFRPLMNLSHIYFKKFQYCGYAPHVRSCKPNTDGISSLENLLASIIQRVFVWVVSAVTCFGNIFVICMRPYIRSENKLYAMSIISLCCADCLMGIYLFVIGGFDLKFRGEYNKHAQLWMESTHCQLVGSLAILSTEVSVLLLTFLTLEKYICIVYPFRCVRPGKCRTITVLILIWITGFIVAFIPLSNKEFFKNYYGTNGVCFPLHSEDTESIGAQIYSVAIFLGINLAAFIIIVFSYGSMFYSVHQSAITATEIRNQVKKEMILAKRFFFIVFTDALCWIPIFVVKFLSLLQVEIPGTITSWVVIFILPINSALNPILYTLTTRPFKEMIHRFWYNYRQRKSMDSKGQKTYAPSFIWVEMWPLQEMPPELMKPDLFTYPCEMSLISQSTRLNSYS


target: T1, RXFP1 receptor; test: cell-based or functional assay

Row | Binder | EC50 (nM), OVCAR 5 cells (cAMP) [nM] | EMax, OVCAR 5 cells (cAMP) [%]
1 | Ac-LEGREKVRAK(Ac)I[Aib][Aib]EGQSTFS[αMeK]RAK(Ac)[PEG2′][PEG2′][PEG2′][PEG2′]K([γGlu-γGlu-γGlu-γGlu-Palmitoyl])-NH2 [peptide of SEQ ID NO: 170] | 0.01 | 87
2 | Ac-LEGREKVRAK(Ac)I[Aib][Aib]EG[Nle]STWS[αMeK]RKK(Ac)[PEG2″][PEG2″][PEG2″]K([γGlu-γGlu-γGlu-γGlu-Stearoyl])-NH2 [peptide of SEQ ID NO: 16] | 0.02 | 87
3 | Ac-LEGREKVRAK(Ac)I[Aib][Aib]EG[Nle]STWS[Aib]RKK(Ac)K([PEG2′-PEG2′-PEG2′-γGlu-γGlu-γGlu-Heptadecanoyl])-NH2 [peptide of SEQ ID NO: 164] | 0.79 | 93
4 | Ac-LEGREKVRAK(Ac)I[Aib][Aib]EG[Nle]ST[Trp(5-OH)]S[Aib]RKK(Ac)K([PEG2′-PEG2′-PEG2′-γGlu-γGlu-γGlu-Stearoyl])-NH2 [peptide of SEQ ID NO: 158] | 0.14 | 90
5 | Ac-LEGREKVRAK(Ac)I[Aib][Aib]EG[Nle]STWS[Aib]AAK(Ac)K([PEG2DGA-PEG2DGA-γGlu-γGlu-γGlu-Stearoyl])-NH2 [peptide of SEQ ID NO: 156] | 0.06 | 90
6 | Ac-LEGREKVRAK(Ac)I[Aib][Aib]EG[Nle]STFSXRAK(Ac)[PEG2′][PEG2′][PEG2′][PEG2′][γGlu][γGlu]K([γGlu-γGlu-Palmitoyl])-NH2 (not fully specified (some residues); printed as Ac-L-E-G-R-E-K-V-R-A-K(Ac)-I-Aib-Aib-E-G-Nle-S-T-F-S-Mly-R-A-K(Ac)-PEG2-PEG2-PEG2-PEG2-gE-gE-K(gE-gE-Palm)-NH2) [peptide of SEQ ID NO: 160] | 0.28 | 86
7 | Ac-LEGREKVRAK(Ac)I[Aib][Aib]EG[Nle]STWS[Aib]RKK(Ac)K([PEG2′-PEG2′-PEG2′-γGlu-γGlu-γGlu-Docosanoyl])-NH2 [peptide of SEQ ID NO: 173] | 0.19 | 85
8 | Ac-LEGREKVRAK(Ac)I[Aib][Aib]EG[Nle]STFS[Aib]RKK(Ac)K([PEG2′-PEG2′-PEG2′-PEG2′-γGlu-γGlu-γGlu-Palmitoyl])-NH2 [peptide of SEQ ID NO: 153] | 0.26 | 89
9 | Ac-LEGREKVRAK(Ac)I[Aib][Aib]EG[Nle]STWS[αMeK]RKK(Ac)[PEG2′][PEG2′][PEG2′]K([γGlu-γGlu-γGlu-γGlu-Palmitoyl])-NH2 [peptide of SEQ ID NO: 17] | 0.17 | 95
10 | Ac-LEGREKVRAK(Ac)I[Aib][Aib]EG[Nle]STFS[αMeK]RAK(Ac)[TTDS(3)][TTDS(3)][γGlu][γGlu][γGlu]K([γGlu-Palmitoyl])-NH2 (SMILES CCCCCCCCCCCCCCCC(=O)N[C@@H](CCC(=O)NCCCC[C@H](NC(=O)CC[C@H](NC(=O)CC[C@H](NC(=O)CC[C@H](NC(=O)CCC(=O)NCCCOCCOCCOCCCNC(=O)CCC(=O)NCCCOCCOCCOCCCNC(=O)[C@H](CCCCNC(C)=O)NC(=O)[C@H](C)NC(=O)[C@H](CCCNC(=N)N)NC(=O)[C@](C)(CCCCN)NC(=O)[C@H](CO)NC(=O)[C@H](Cc1ccccc1)NC(=O)[C@@H](NC(=O)[C@H](CO)NC(=O)[C@H](CCCC)NC(=O)CNC(=O)[C@H](CCC(=O)O)NC(=O)C(C)(C)NC(=O)C(C)(C)NC(=O)[C@@H](NC(=O)[C@H](CCCCNC(C)=O)NC(=O)[C@H](C)NC(=O)[C@H](CCCNC(=N)N)NC(=O)[C@@H](NC(=O)[C@H](CCCCN)NC(=O)[C@H](CCC(=O)O)NC(=O)[C@H](CCCNC(=N)N)NC(=O)CNC(=O)[C@H](CCC(=O)O)NC(=O)[C@H](CC(C)C)NC(C)=O)C(C)C)[C@@H](C)CC)[C@@H](C)O)C(=O)O)C(=O)O)C(=O)O)C(N)=O)C(=O)O) [peptide of SEQ ID NO: 157] | 0.02 | 89
11 | Ac-LEGREKVRAK(Ac)I[Aib][Aib]EGQSTFS[αMeK]RAK(Ac)[PEG2′][PEG2′][PEG2′][PEG2′]K([γGlu-γGlu-γGlu-γGlu-Lauroyl])-NH2 [peptide of SEQ ID NO: 161] | 12.1 | 94
12 | Ac-LEGREKVRAK(Ac)I[Aib][Aib]EG[Nle]STWS[Aib]RKK(Ac)K([PEG2′-PEG2′-PEG2′-γGlu-γGlu-γGlu-Arachidoyl])-NH2 [peptide of SEQ ID NO: 171] | 0.18 | 83
13 | Ac-LEGREKVRAK(Ac)I[Aib][Aib]EG[Nle]STWS[Aib]AAK(Ac)K([PEG2′-PEG2′-PEG2′-γGlu-γGlu-γGlu-Stearoyl])-NH2 [peptide of SEQ ID NO: 155] | 1.17 | 95
14 | Ac-LEGREKVRAK(Ac)I[Aib][Aib]EG[Nle]STWS[Aib]RKK(Ac)K([TTDS″-TTDS″-γGlu-γGlu-γGlu-Palmitoyl])-NH2 [peptide of SEQ ID NO: 166] | 0.26 | 92
15 | Ac-LEGREKVRAK(Ac)I[Aib][Aib]EG[Nle]STFS[αMeK]RAK(Ac)[PEG2′][PEG2′][PEG2′][PEG2′]K([γGlu-γGlu-γGlu-γGlu-Myristoyl])-NH2 [peptide of SEQ ID NO: 172] | 0.56 | 95
16 | Ac-LEGREKVRAK(Ac)I[Aib][Aib]EG[Nle]STFS[αMeK]RAK(Ac)[PEG2′][PEG2′][PEG2′][PEG2′]K([γGlu-γGlu-γGlu-γGlu-Pentadecanoyl])-NH2 [peptide of SEQ ID NO: 167] | 0.05 | 93
17 | Ac-LEGREKVRAK(Ac)I[Aib][Aib]EG[Nle]STFSXRAK(Ac)[PEG2′][PEG2′][PEG2′][PEG2′][γGlu][γGlu]K([γGlu-γGlu-Pentadecanoyl])-NH2 (not fully specified (some residues); printed as Ac-L-E-G-R-E-K-V-R-A-K(Ac)-I-Aib-Aib-E-G-Nle-S-T-F-S-Mly-R-A-K(Ac)-PEG2-PEG2-PEG2-PEG2-gE-gE-K(gE-gE-Penta)-NH2) [peptide of SEQ ID NO: 168] | 0.06 | 91
18 | Ac-LEGREKVRAK(Ac)I[Aib][Aib]EG[Nle]ST[αMeF]S[αMeK]RAK(Ac)[PEG2″][PEG2″][PEG2″][PEG2″][γGlu][γGlu][γGlu]K([γGlu-Palmitoyl])-NH2 [peptide of SEQ ID NO: 152] | 0.04 | 91
19 | Ac-LEGREKVRAK(Ac)I[Aib][Aib]EG[Nle]STFS[αMeK]RAK(Ac)K([PEG2′-PEG2′-PEG2′-PEG2′-γGlu-γGlu-γGlu-γGlu-Palmitoyl])-NH2 [peptide of SEQ ID NO: 154] | 0.4 | 92
20 | Ac-LEGREKVRAK(Ac)I[Aib][Aib]EG[Nle]STWS[Aib]RKK(Ac)K([PEG2′-PEG2′-PEG2′-γGlu-γGlu-γGlu-Pentadecanoyl])-NH2 [peptide of SEQ ID NO: 163] | 5.3 | 87
21 | Ac-LEGREKVRAK(Ac)I[Aib][Aib]EG[Nle]STFS[αMeK][Arg(Me)]AK(Ac)[PEG2″][PEG2″][PEG2″][PEG2″][γGlu][γGlu][γGlu]K([γGlu-Palmitoyl])-NH2 [peptide of SEQ ID NO: 151] | 0.14 | 90
22 | Ac-LEGREKVRAK(Ac)I[Aib][Aib]EG[Nle]STFS[αMeK]RKK(Ac)[PEG2″][PEG2″][PEG2″][PEG2″][γGlu][γGlu]K([γGlu-γGlu-Palmitoyl])-NH2 [peptide of SEQ ID NO: 159] | 0.02 | 88
23 | Ac-LEGREKVRAK(Ac)I[Aib][Aib]EG[Nle]STWS[Aib]RKK(Ac)K([PEG2′-PEG2′-γGlu-γGlu-PEG2′-γGlu-Palmitoyl])-NH2 [peptide of SEQ ID NO: 165] | 0.38 | 105
